Counter-ions that a name gives are not always drawn.
Assay: Pharmacokinetics - neutralization experiment with avidin i.v. in rat
Type: in vivo
Conditions: s.c. 500 nmol/kg
Procedure: 3.2 Pharmacokinetics—Neutralization Experiment:
Rats were treated with compound 10, 12, or 27 at a dose of 100 nmol/kg s.c. At t=1 h, a blood sample was taken and 10 mg/kg of Avidin (from egg white, Sigma) was administered i.v. to the rats treated with compound 10 or 12. Blood was sampled at 0.5-1-3-6 and 23 hours subsequently. The blood was treated as described in the pharmacokinetic experiment and the concentration of the samples was determined by measuring the (residual) anti-Xa activity. (FIG. 8)
In a separate experiment compound 10, 17 or 26 was administered at a dose of 500 nmol/kg s.c. after which blood was collected at 24 hours. Then 10 mg/kg avidin was administered intravenously and blood was collected at 25 and 26 hours. (FIG. 9)

Compound: CO[C@H]1O[C@H](COS(=O)(=O)O)[C@@H](O[C@@H]2O[C@@H](C(=O)O)[C@@H](O[C@H]3O[C@H](COS(=O)(=O)O)[C@@H](O[C@@H]4O[C@H](C(=O)O)[C@@H](O[C@H]5O[C@H](COS(=O)(=O)O)[C@@H](OCCOCCOCCOCCNC(=O)[C@H](CCCCN(C)C(=O)CCCC[C@@H]6SC[C@@H]7NC(=O)N[C@@H]76)NC(=O)COCCOCCOCCOCCNC(=O)c6cccc(S(=O)(=O)N[C@@H](Cc7ccc(OCCCCC8CCNCC8)cc7)C(=O)O)c6)[C@H](OC)[C@H]5OC)[C@H](OC)[C@H]4OC)[C@H](OS(=O)(=O)O)[C@H]3OS(=O)(=O)O)[C@H](OC)[C@H]2OC)[C@H](OS(=O)(=O)O)[C@H]1OS(=O)(=O)O [Compound 26, sodium salt]
- level at time molar at 24 h (plasma, sc, 24 h, before avidin, read-out: Plasma level T = 24 h): 1070 ± 58 nM
- Plasma level T = 26 h (2 hours after avidin 10 mg/kg i.v. at t = 24 h): 361 ± 26 nM
- % reduction of plasma concentration (within 2 hours after avidin 10 mg/kg i.v. at t = 24 h, sodium salt): 66%
